# Biological target: T1, STAT3 (Signal Transducer and Activator of Transcription 3) (mouse, UniProt P42227 2-770)
# T1 construct: Detected by anti-STAT3 Western blot in PKC immunoprecipitates
# Test: co-immunoprecipitation from primary keratinocyte lysates, anti-STAT3 Western blot
# Procedure: FIG. 23 identifies a specific interaction between STAT3 and PKCδ in primary skin keratinocytes. Primary keratinocytes were either untreated (upper panel) or infected for 1 hour with isoform specific, recombinant PKC α, δ, η or ζ adenoviruses (lower panel). Cells were extracted and immunoprecipitated (IP) with isoform specific PKC antibodies. The immunoprecipitates were subjected to Western blot analysis using anti-PKCs or anti-STAT3 antibodies.
# T1 sequence (P42227 2-770 limits assumed): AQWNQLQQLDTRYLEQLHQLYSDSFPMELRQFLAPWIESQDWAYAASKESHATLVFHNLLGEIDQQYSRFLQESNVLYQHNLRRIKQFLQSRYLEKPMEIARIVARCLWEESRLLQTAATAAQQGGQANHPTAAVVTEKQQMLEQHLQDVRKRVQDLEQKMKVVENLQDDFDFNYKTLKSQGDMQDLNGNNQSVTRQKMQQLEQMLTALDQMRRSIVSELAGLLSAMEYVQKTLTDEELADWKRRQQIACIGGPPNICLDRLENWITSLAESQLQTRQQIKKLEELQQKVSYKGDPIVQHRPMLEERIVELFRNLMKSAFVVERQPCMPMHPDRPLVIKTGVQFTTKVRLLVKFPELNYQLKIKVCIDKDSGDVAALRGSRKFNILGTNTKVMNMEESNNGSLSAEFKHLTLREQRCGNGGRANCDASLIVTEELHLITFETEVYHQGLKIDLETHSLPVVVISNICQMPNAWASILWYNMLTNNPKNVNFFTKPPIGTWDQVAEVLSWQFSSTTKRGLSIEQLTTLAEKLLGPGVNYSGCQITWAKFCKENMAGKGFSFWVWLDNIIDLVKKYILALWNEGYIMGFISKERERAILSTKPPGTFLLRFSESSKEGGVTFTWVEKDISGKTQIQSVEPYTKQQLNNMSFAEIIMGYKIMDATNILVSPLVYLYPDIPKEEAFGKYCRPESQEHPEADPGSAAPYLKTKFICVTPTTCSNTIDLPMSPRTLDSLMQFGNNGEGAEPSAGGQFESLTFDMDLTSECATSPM
row,binding result,Binder
1,no binding,"PKCζ (protein kinase C zeta) (enzyme, mouse, UniProt Q02956 1-592, looked up) MPSRTDPKMDRSGGRVRLKAHYGGDILITSVDAMTTFKDLCEEVRDMCGLHQQHPLTLKWVDSEGDPCTVSSQMELEEAFRLVCQGRDEVLIIHVFPSIPEQPGMPCPGEDKSIYRRGARRWRKLYRANGHLFQAKRFNRGAYCGQCSERIWGLSRQGYRCINCKLLVHKRCHVLVPLTCRRHMDSVMPSQEPPVDDKNDGVDLPSEETDGIAYISSSRKHDNIKDDSEDLKPVIDGVDGIKISQGLGLQDFDLIRVIGRGSYAKVLLVRLKKNDQIYAMKVVKKELVHDDEDIDWVQTEKHVFEQASSNPFLVGLHSCFQTTSRLFLVIEYVNGGDLMFHMQRQRKLPEEHARFYAAEICIALNFLHERGIIYRDLKLDNVLLDADGHIKLTDYGMCKEGLGPGDTTSTFCGTPNYIAPEILRGEEYGFSVDWWALGVLMFEMMAGRSPFDIITDNPDMNTEDYLFQVILEKPIRIPRFLSVKASHVLKGFLNKDPKERLGCRPQTGFSDIKSHAFFRSIDWDLLEKKQTLPPFQPQITDDYGLDNFDTQFTSEPVQLTPDDEDVIKRIDQSEFEGFEYINPLLLSAEESV"
2,no binding,PKCα (protein kinase C alpha) (enzyme) not shown
3,no binding,"PKCη (protein kinase C eta) (enzyme, mouse, UniProt P23298 1-683, looked up) MSSGTMKFNGYLRVRIGEAVGLQPTRWSLRHSLFKKGHQLLDPYLTVSVDQVRVGQTSTKQKTNKPTYNEEFCANVTDGGHLELAVFHETPLGYDHFVANCTLQFQELLRTAGTSDTFEGWVDLEPEGKVFVVITLTGSFTEATLQRDRIFKHFTRKRQRAMRRRVHQVNGHKFMATYLRQPTYCSHCREFIWGVFGKQGYQCQVCTCVVHKRCHHLIVTACTCQNNINKVDAKIAEQRFGINIPHKFNVHNYKVPTFCDHCGSLLWGIMRQGLQCKICKMNVHIRCQANVAPNCGVNAVELAKTLAGMGLQPGNISPTSKLISRSTLRRQGKEGSKEGNGIGVNSSSRFGIDNFEFIRVLGKGSFGKVMLARIKETGELYAVKVLKKDVILQDDDVECTMTEKRILSLARNHPFLTQLFCCFQTPDRLFFVMEFVNGGDLMFHIQKSRRFDEARARFYAAEIISALMFLHEKGIIYRDLKLDNVLLDHEGHCKLADFGMCKEGICNGVTTATFCGTPDYIAPEILQEMLYGPAVDWWAMGVLLYEMLCGHAPFEAENEDDLFEAILNDEVVYPTWLHEDATGILKSFMTKNPTMRLGSLTQGGEHEILRHPFFKEIDWAQLNHRQLEPPFRPRIKSREDVSNFDPDFIKEEPVLTPIDEGHLPMINQDEFRNFSYVSPELQL"
4,no binding,"PKCε (protein kinase C epsilon) (enzyme, mouse, UniProt P16054 1-737, looked up) MVVFNGLLKIKICEAVSLKPTAWSLRHAVGPRPQTFLLDPYIALNVDDSRIGQTATKQKTNSPAWHDEFVTDVCNGRKIELAVFHDAPIGYDDFVANCTIQFEELLQNGSRHFEDWIDLEPEGKVYVIIDLSGSSGEAPKDNEERVFRERMRPRKRQGAVRRRVHQVNGHKFMATYLRQPTYCSHCRDFIWGVIGKQGYQCQVCTCVVHKRCHELIITKCAGLKKQETPDEVGSQRFSVNMPHKFGIHNYKVPTFCDHCGSLLWGLLRQGLQCKVCKMNVHRRCETNVAPNCGVDARGIAKVLADLGVTPDKITNSGQRRKKLAAGAESPQPASGNSPSEDDRSKSAPTSPCDQELKELENNIRKALSFDNRGEEHRASSATDGQLASPGENGEVRPGQAKRLGLDEFNFIKVLGKGSFGKVMLAELKGKDEVYAVKVLKKDVILQDDDVDCTMTEKRILALARKHPYLTQLYCCFQTKDRLFFVMEYVNGGDLMFQIQRSRKFDEPRSRFYAAEVTSALMFLHQHGVIYRDLKLDNILLDAEGHCKLADFGMCKEGIMNGVTTTTFCGTPDYIAPEILQELEYGPSVDWWALGVLMYEMMAGQPPFEADNEDDLFESILHDDVLYPVWLSKEAVSILKAFMTKNPHKRLGCVAAQNGEDAIKQHPFFKEIDWVLLEQKKIKPPFKPRIKTKRDVNNFDQDFTREEPILTLVDEAIIKQINQEEFKGFSYFGEDLMP"

# — patent US20060258562A1 (HEALOR, published 2006)
